# B1: AADHmm: eutE type AADH of Morganella morganii SC01, GenBank EMP53767.1 (protein)
# chain: MDQKEIENVVKAVLASMSAGTQPAAASAAPQQAAASQNNGFGVFESLDDAVLAAKEAQKSLKTVEMRNLCIGAIRRAATEHARELAVLAVEETGMGRVEDKLAKNLAQANGTPGVECLRPEVLTGDHGLTLIENAAWGVIASVTPSTNPAATAINNAISMIAGGNSVIFAPHPAAKKVSQRTITILNEAIVAAGGPNNLLVTVAKPDIETAQRLFKYPGIGLLVVTGGDAVVESARKHTNKRLIAAGAGNPPVVVDETADIERAAKAIVHGASFDNNIICADEKVLIAVDCIADKLITEMQRNHAVLLTREQSEKLIPVLLKNVDETGHGTVSRDWVGRDAAKIAAAIGMTVPADTRLLIAETDCKHPFAVTELMMPVLPIIRVKDVDQAIDLAVKLEGGCHHTAAMHSNNISNLNRMANAIDTSIFVKNGPCIAGLGLGGEGWTTMTITTPTGEGVTCARTFVRLRRCTMVDSFRIV
# modifications: AADHmm
# B2: AADHbw: eutE type AADH of Bilophila wadsworthia 3_1_6, GenBank EFV45545.1 (protein)
# chain: MDVRQQDVERIVVEVLKKMMSDQPTAAATTVVAASGCDCGDFGLFDRLEDAVQAAEAAQKKISTVAMRDKIIAAIRKAGLENAKAFAEIAHNETGMGRVSDKIAKNILVCERTPGTECLSPMAISGDMGLTLIENAPWGVIASVTPSTNPTATVINNAISMIAGGNSVIFAPHPNAKRASQTAIQVLNKAIIEATGVANLLVAVKEPTIEVAQELFSHPRIKLLVVTGGEAVVAQARKVATMRLIAAGAGNPPVVVDETANIARAARSIYDGASFDNNIICADEKEIIAVDSIADQLKAEMKAIGAVEISLEQADAVARVVLRNYPQVEGGKAPNPNPKWVGRDAALIAKAAGIDVPDSCRLLIVDVKRDINHVFARVEQLMPVIPLLRAANVDEAIEWALILERGLSHTAGMHSRNIDNMDKMARAMNTSLFVKNGPHLAALGAGGEGWTTMTISTPTGEGVTCARSFVRLRRCCVVDNFRIV
# modifications: AADHbw
# B3: EUTEec: eutE type AADH of Escherichia coli HS, GenBank YP_001459232.1 (protein)
# chain: MNQQDIEQVVKAVLLKMQSSDTPPAAVHEMGVFASLDDAVAAAKVAQQGLKSVAMRQLAIAAIREAGEKHARDLAELAVSETGMGRVEDKFAKNVAQARGTPGVECLSPQVLTGDNGLTLIENAPWGVVASVTPSTNPAATLINNAISLIAAGNSVIFAPHPAAKKVSQRAITLLNQAIVAAGGPENLLVTVANPDIETAQRLFKFPGIGLLVVTGGEAVVEAARKHTNKRLIAAGAGNPPVVVDETADLARAAQSIVKGASFDNNIICADEKVLIVVDSVADELMRLMEGQHAVKLTAEQAQQLQPVLLKNIDERGKGTVSRDWVGRDAAKIAAAIGLNVPQETRLLFVETTAEHPFAVTELMMPVLPVVRVANVADAIALAVKLEGGCHHTAAMHSRNIENMNQMANAIDTSIFVKNGPCIAGLGLGGEGWTTMTITTPTGEGVTSARTFVRLRRCVLVDAFRIV
# modifications: EUTEec
# B4: AADHta: eutE type AADH of Tolumonas auensis DSM 9187, GenBank ACQ93307.1 (protein)
# chain: MNNTELESLIRTILTEQLTPSATDTPACTASSVALFDDVDSAICAAHAAFLRYQEAPLKTRSAIIAAIRAEIAPCLSELAERAAAETGMGNTADKILKNKAALENTPGIEDLKTTALTGDEGMVLFEYSPFGVVGAVAPSTNPTETIINNSISMLAAGNAIYFSPHPGAKNISLWLIQKMEEIAFKVCGIHNLIVTVKEPTFEATQQMMAHDKIALLAITGGPGIVNMGLKSGKKVIGAGAGNPPCLVDETAEIVKAAQDIVAGASFDYNLPCIAEKSVIAVDCIADQLIQQMREFGAMQITDPQQIAQLREVCIQKGAANKSLVGKSPATILAAAGIPCPAKEPRLIILEVPANDPFVVTEQLMPVLPIVRVDNFEQGLQLALKVEDGLHHTAMMHSQNVSRLNKAAHLMQTSIFVKNGPSYAGIGVGAEGFTTFTIATPTGEGTTSARTFGRLRRCVLTNGFSIR
# modifications: AADHta
# B5: AADHtl: eutE type AADH of Thauera linaloolentis DSM 12138, GenBank ENO90114.1 (protein)
# chain: MVDIDLKNVEQIVRTVLASMQTQPQAVQPAAGRRAAPGVFTELDDAVAEASTAQRAIRNLATRVKVVEAIRKAAEAHARELAELAVAETGMGRVEDKFAKNVSQARHTPGVECLAPTALTGDRGLTLIENAAWGVIASVTPSTNPAATIINNAISMISAGNTVVFAPHPAAKKVSQRTVSLLNEASVAAGGPDNVVTTVLNPDIATAQRLFSYPGIHLLTVTGGEAVVEAARKHTDKRLIAAGAGNPPVVVDETADLARAARDIVWGASFDNNIICVDEKEIIVVDRVCDALKTEMARHKAVELTPDQGKRLVDVLLNYVGADGRGTVSRDWVGRDAAKIAAAIGLEVPADTRLLYIETPADHPFAVTELMMPVIPVVRAPDVDAAIDLAVKLEGNCRHTAAMHSRNIDALDRMANAINTSIFVKNGPCLAGLGFGGEGWTTMTISTPTGEGVTSARTFVRLRRCVLVDHFRIV
# modifications: AADHtl
# B6: AADHhs: eutE type AADH of Halanaerobium saccharolyticum DSM 6643, GenBank CCU77919.1 (protein)
# chain: MKIKENELDKIVNQVISSLNNKQNSNDFNTKINYGIFSTMDEAIAEAVKAQACLQLNYSTEAREKIIKSIRKNVSKHVEKISEMAVEETDMGRIEDKIIKNNLAINKTPGTEDLRTEAFSGKKGLTIVEEAPFGVICSIAPVTNPTETIISNAISMIASCNGVVFNSHPGAKKVSKYIIEVLNKVIMEAGGPENLLTAVNEPTLQTVESCMRDDRIAMIVATGGPGVVNAALSSGKKAIGAGAGNPPVLVDDTVDLKRVAKDIINGASFDNNLPCTSEKAIVALESIADSLLNEMTNQNAQLVHDIKALERVILNDDGSINKALVGKDAAFILNKAGLKAKSEDLRLVIVDVDLRHPFVQKEQLMPVIPLVRAKNFNEAMEMGVDIEEGNRHTAIIHSKNVDNLTKFAKKIETTIYVKNAPSYAGIGAGGEGYATFTIAGPTGEGLTSARSFTRKRRCVLVDGFSII
# modifications: AADHhs
# B7: AADHbs: eutE type AADH of Blautia sp. CAG: 237, GenBank CDB76812.1 (protein)
# chain: MDEIMIKNIVREVLMKTNLDISCKSDQGVFEDVNDAIDAAYIAQRDWYMNYKVEDRRRIIEAIRVVARENAPMFAKMIHEETGMGRYEDKITKNLAVIDKTPGVECLVTDAISGDSGLMIEEQAPFGVIGAITPSTNPTETIINNTISMIGGGNAVVFNVHPGAKKVCAVCLQILHKTIVENGGPANLITMQRKPDMEAVNKLTASPKIRLMVGTGGMGMVNALLKSGKKTIGAGAGNPPVVVDDTADLDKAASEIYRGASFDNNLLCLAEKETFVMDNVADELIRKMCACGAHLITPQETEQLLKVIFLEKDGKYSVNKKWVGKDASLILESIGIKDADTRLVLCEVPHDHPFVLVEQLMPIMPIVRCKTFEDCVKYAVVAENGNRHTASMFSKNVDHMTRFAKEIETTIFTKNAATLVGVGIGGEGHTTMTIAGPTGEGLTCARSFTRRRRCMLADGGLRVI
# modifications: AADHbs
# B8: ADHEpm: adhE type AADH of Piromyces sp. E2, GenBank AY282576.1 (protein)
# chain: MSGLQMFQNLSLYGSLAEIDTSEKLNEAMDKLTAAQEQFREYNQEQVDKIFKAVALAASQNRVAFAKYAHEETQKGVFEDKVIKNEFAADYIYHKYCNDKTAGIIEYDEANGLMEIAEPVGPVVGIAPVTNPTSTIIYKSLIALKTRNCIIFSPHPGAHKASVFVVKVLHQAAVKAGAPENCIQIIFPKMDLTTELLHHQKTRFIWATGGPGLVHASYTSGKPALGGGPGNAPALIDETCDMNEAVGSIVVSKTFDCGMICATENAVVVVESVYENFVATMKKRGAYFMTPEETKKASNLLFGEGMRLNAKAVGQTAKTLAEMAGFEVPENTVVLCGEASEVKFEEPMAHEKLTTILGIYKAKDFDDGVRLCKELVTFGGKGHTAVLYTNQNNKDRIEKYQNEVPAFHILVDMPSSLGCIGDMYNFRLAPALTITCGTMGGGSSSDNIGPKHLLNIKRVGMRRENMLWFKIPKSVYFKRAILSEALSDLRDTHKRAIIITDRTMTMLGQTDKIIKACEGHGMVCTVYDKVVPDPTIKCIMEGVNEMNVFKPDLAIALGGGSAMDAAKMMRLFYEYPDQDLQDIATRFVDIRKRVVGCPKLGRLIKTLVCIPTTSGTGAEVTPFAVVTSEEGRKYPLVDYELTPDMAIVDPEFAVGMPKRLTSWTGIDALTHAIESYVSIMATDFTRPYSLRAVGLIFESLSLAYNNGKDIEAREKMHNASAIAGMAFANAFLGCCHSVAHQLGSVYHIPHGLANALMLSHIIKYNATDSPVKMGTFPQYKYPQAMRHYAEIAELLLPPTQVVKMTDVDKVQYLIDRVEQLKADVGIPKSIKETGMVTEEDFFNKVDQVAIMAFDDQCTGANPRYPLVSELKQLMIDAWNGVVPKL
# modifications: ADHEpm
# System: S. cerevisiae VSK-128 ACS2 deletion strain
# Test: AADH in vivo growth assay, ACS2 deletion strain on glucose-based agar plates
# Type: cell-based
# Conditions: not given
# Source text: All copies of the ACS2 gene were deleted from the industrial S. cerevisiae VSK-128 strain in order to generate a strain with a defective PDH-bypass that was incapable of growth on glucose-based medium. Expression vectors carrying the 25 different AADH variants were then transformed into this ACS2 deletion strain to evaluate their ability to recover the growth of this strain on glucose.
# There was a good correlation between the in vitro AADH enzyme activity assays and the in vivo growth recovery analyses.
row,Molecule,recovery of the growth deficiency of the ACS2-deletion strain
1,B1,capable of recovering the growth deficiency
2,B2,capable of recovering the growth deficiency
3,B3,capable of recovering the growth deficiency
4,B4,capable of recovering the growth deficiency
5,B5,capable of recovering the growth deficiency
6,B6,capable of recovering the growth deficiency
7,B7,capable of recovering the growth deficiency

# System: AADH
# Test: AADH in vitro enzyme activity assay from yeast cell lysates
# Type: biochemical
# Conditions: CEN.PK lab strain, multicopy plasmid, TEF1 promoter
# Description: AADH activity was measured as described by Kozak et al. (2014, Metab. Eng. 21:46-59) by monitoring the reduction of NAD^+ at 340 nm at 30° C. The yeast cells for the cell lysates were collected, washed with water, and then resuspended into lysis buffer containing 100 mM Tris-HCl buffer (pH 7.5) and 1×EDTA free protease inhibitor cocktail (Roche). The cells were lysed with glass beads in a Precellys 24 homogenizer at 5500 rpm for 3×40 seconds and kept on ice between rounds. Lysates were centrifuged at 16 000 g for 20 min at 4° C. and supernatants were collected. The total protein concentration was determined using the Bradford method.
# The enzyme assay reaction mixture contained 0.1 mM Coenzyme A, 50 mM CHES buffer (pH 9.5), 0.8 mM NAD^+, 0.2 mM DTT and 10 μL of cell extract in a total reaction volume of 200 μL. The reaction was started by adding 10 mM of freshly prepared acetaldehyde solution and reduction of NAD^+ was followed with a Thermo Konelab 20XT analyser.
# Five AADH genes were originally chosen (i.e. ADHEpm, ADHEec, EUTec, EUTdz and LIN1129li) and transformed into the CEN.PK lab strain. These AADHs were expressed from a multicopy plasmid where they were under control of the TEF1 promoter.
# Twenty additional novel AADH genes were chosen from the genome mining analyses to be evaluated for expression and enzyme activity in yeast.
row,Molecule,AADH activity in yeast compared to the adhE-type AADHs
1,B3,much higher AADH activity

# Same assay, conditions: in vitro, expressed in yeast
row,Molecule,AADH activity
1,B1,shown to have AADH activity
2,B2,shown to have AADH activity
3,B3,showed AADH activity
4,B8,showed AADH activity
